According to paper PMC9775241, “One-Step Photochemical Immobilization of Aptamer on Graphene for Label-Free Detection of NT-proBNP”:

How the values were obtained:
[1] = target: cTnI (cardiac troponin I) (UniProt P19429 2-210); experiment: graphene field-effect transistor (GFET) aptasensor; cTnI 3.5 ng/mL; no significant response; PBS (137 mM NaCl, 2.7 mM KCl, 10 mM phosphate) used for immobilization and blank; sensing buffer dilution, pH and temperature not given in material; aptamer on; conditions: protein: commercial
cTnI (cardiac troponin I), sequence (P19429 2-210): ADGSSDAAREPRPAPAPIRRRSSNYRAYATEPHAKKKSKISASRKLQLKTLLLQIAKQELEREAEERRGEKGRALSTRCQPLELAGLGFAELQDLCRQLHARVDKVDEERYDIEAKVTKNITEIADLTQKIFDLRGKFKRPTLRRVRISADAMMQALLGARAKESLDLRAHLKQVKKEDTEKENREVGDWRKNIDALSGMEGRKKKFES

NT-proBNP = NT-proBNP (UniProt P16860 27-102); experiment: graphene field-effect transistor (GFET) aptasensor; LOD 0.01 pg/mL, range 0.1-10^4 pg/mL; Langmuir KD calculated but value not in material; PBS (137 mM NaCl, 2.7 mM KCl, 10 mM phosphate) used for immobilization and blank; sensing buffer dilution, pH and temperature not given in material; aptamer on; conditions: protein: commercial
NT-proBNP, sequence (P16860 27-102): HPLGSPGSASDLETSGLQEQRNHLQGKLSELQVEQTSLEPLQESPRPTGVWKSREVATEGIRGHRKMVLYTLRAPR

B1: azide-modified NT-proBNP aptamer (N20a in Fig. S3 legend) (ssDNA)
DNA: GGCAGGAAGACAAACAGGTCGTAGTGGAAACTGTCCACCGTAGACCGGTTATCTAGTGGTCTGTGGTGCTGT
modifications: 5'-NH2; 3'-azide (N3), photochemically coupled to graphene
[1]
  binding result: no binding
NT-proBNP
  binding result: binds
